According to patent publication US20200040045, “CARBOHYDRATE PRODUCING PLANT MATERIAL” (GREEN RICE SWEDEN AB, published 2020):

Legend:
[1] = target: SUSIBA1 (Hordeum vulgare); assay: EMSA; settings: tags: overexpressed in and purified from E. coli; label: 32P; second strand printed as 3'-5' complement, annealed duplex
Description: (§1) Bars in (A-D)=5 μm and in (K-M)=100 μm. One-way ANOVA was used (Error bars show s.d. and **p≤0.01 between heat-killed background and living agrobacteria).
(§2) Having identified SUSIBA1 p, the potential involvement of SUSIBA1 in fructan synthesis was investigated. […] Electrophoretic mobility shift assay (EMSA) was used to study the in vitro interaction between SUSIBA1 and the promoter of 6-SFT that encodes a key enzyme in synthesis of fructan in barley. EMSA was performed as described previously using overexpressed and purified SUSIBA1 from E. coli (FIG. 8E to 8J). In accordance with the hallmark of WRKY proteins, it was shown that the […] TF bound to the W-box DNA cis-element. […] Examination of the 6-SFT promoter led to identification of two SUREa, three W-box and one SP8a element (FIG. 8E). Using different combinations of the restriction enzymes BstXI, PvulI and SpeI, the full-length promoter (fragment 1) was resolved into four fragments (fragments 2-5, FIG. 8E). […] To confirm the specificity of the binding activity, the element sequences (FIG. 8I) were engineered and the binding of SUSIBA1 was tested. […] No binding activity of SUSIBA1 to the engineered element sequences, i.e., SP8a M, W-box M and SUREa M4 also indicated the reliability of EMSA in the assay system (FIG. 8J). […]

[2] = target: SUSIBA1 (Hordeum vulgare); assay: EMSA; 0.0125-0.2 ug SUSIBA1 prevents binding of 0.2 ug SUSIBA2 to the W-box; settings: tags: overexpressed in and purified from E. coli; label: 32P
Description: (§3) The infiltrated leaves were incubated at 40 mM Suc. Two days after infiltration and incubation, qPCR analysis was performed. (C) Transcript levels of SUSIBA2 after co-infiltration of agrobacteria containing p35S:SUSIBA2 with the double-stranded decoy oligoes upon antisense inhibition of SUSIBA1. (D) Transcript levels of SUSIBA2 after infiltration of agrobacteria containing p35S:SUSIBA2 alone or the double-stranded decoy oligoes alone at 100 mM Suc. The infiltrated leaves were incubated at 100 mM Suc for two days before analysis. Significant differences are analyzed statistically between p35S:SUSIBA1 and decoy oligoes, and indicated by asterisks (**p≤0.01) in (B), and between p35:SUSIBA2 and decoy oligoes in (C), and between p35:SUSIBA2 and decoy oligoes in (D). One-way ANOVA was used (Error bars show s.d.) Three independent experiments were performed (n=3). (E) EMSA analysis of competitive activity to the W-box in the SUSIBA2 promoter between SUSIBA2 and SUSIBA1. EMSA of binding activity to the W-box of SUSIBA2 (left panel) and SUSIBA1 (middle panel) and SUSIBA2 and SUSIBA1 in competing (right panel). SUSIBA2 and SUSIBA1 were overexpressed and purified from E. coli and challenged with two oligoes. […]

[3] = target: SUSIBA2 (Hordeum vulgare, UniProt Q6VWJ6 SEQ:1-573); assay: EMSA; 0.2 ug SUSIBA2; displaced by SUSIBA1; settings: tags: overexpressed and purified; label: 32P
SUSIBA2, sequence (Q6VWJ6 whole entry): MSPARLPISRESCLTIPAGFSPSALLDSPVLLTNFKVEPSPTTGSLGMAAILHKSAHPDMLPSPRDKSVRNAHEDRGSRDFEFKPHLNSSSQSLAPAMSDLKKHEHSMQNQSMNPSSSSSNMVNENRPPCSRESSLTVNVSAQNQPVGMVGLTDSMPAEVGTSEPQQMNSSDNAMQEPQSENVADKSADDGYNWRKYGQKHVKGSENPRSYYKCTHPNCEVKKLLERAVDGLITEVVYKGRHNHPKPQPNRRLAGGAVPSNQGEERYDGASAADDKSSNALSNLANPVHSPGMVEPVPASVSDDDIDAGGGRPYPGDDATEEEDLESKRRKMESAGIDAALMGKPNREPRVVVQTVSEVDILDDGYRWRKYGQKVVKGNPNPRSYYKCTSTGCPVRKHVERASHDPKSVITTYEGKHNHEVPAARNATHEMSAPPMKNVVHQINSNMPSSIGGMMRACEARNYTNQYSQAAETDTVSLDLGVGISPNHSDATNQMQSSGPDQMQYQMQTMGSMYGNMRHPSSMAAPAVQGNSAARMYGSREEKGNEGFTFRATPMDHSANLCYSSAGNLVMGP
Description: as §3

[4] = target: SUSIBA1 (Hordeum vulgare); assay: EMSA; A-stretch substitution; settings: tags: overexpressed in and purified from E. coli; label: 32P
Description: as §1, §2

SUSIBA1 (Hordeum vulgare), sequence (Q6VWJ6 293-573): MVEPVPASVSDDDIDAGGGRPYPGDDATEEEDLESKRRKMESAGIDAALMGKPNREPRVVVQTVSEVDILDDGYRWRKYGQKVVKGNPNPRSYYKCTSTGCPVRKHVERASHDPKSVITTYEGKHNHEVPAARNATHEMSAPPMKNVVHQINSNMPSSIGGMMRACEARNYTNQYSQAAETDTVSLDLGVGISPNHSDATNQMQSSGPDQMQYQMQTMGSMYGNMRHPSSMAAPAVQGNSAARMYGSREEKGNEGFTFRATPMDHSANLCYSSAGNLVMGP

B1: 6-SFT SP8a (dsDNA)
DNA 1: CTGTACTGTGTTTTTAGCCT
DNA 2: AGGCTAAAAACACAGTACAG
B1: binds [1].

B2: SUSIBA2 promoter W-box oligo (dsDNA)
DNA 1: TAGGTCGTCAATTTGACTTATATAAAATAT
DNA 2: ATATTTTATATAAGTCAAATTGACGACCTA
B2: binds [2]; binds [3].

B3: SUREa M4 (dsDNA)
DNA 1: CAAAAAAAAAAAAAAAAAAC
DNA 2: GTTTTTTTTTTTTTTTTTTG
B3: no binding [4].

B4: 6-SFT SUREa (dsDNA)
DNA 1: CACACATGGCACGCCAAAAC
DNA 2: GTTTTGGCGTGCCATGTGTG
B4: binds [1].
